This data set concerns the molecule itself. The experiment in a line: crystal structure.

These results are taken from article PMC3595323 (Proteins, 2013).

B1: Thermoplasma acidophilum nucleoside kinase Ta0880, crystallization construct (E112A, K113A, K115A) (enzyme, UniProt Q9HJT3 1-287, looked up)
chain: MRFLAYFGHLNIDVLISVDSIPREGSVNVKDLRPRFGGTAGNFAIVAQKFRIPFDLYSAVGMKTHREYLAMIESMGINTGHVEKFEDESGPICYIATDGKKQVSFMHQGAMAAWAPQLADEYEYVHFSTGPNYLDMAKSIRSKIIFDPSQEIHKYSKDELKKFHEISYMSIFNDHEYRVFREMTGLSSPKVTTIVTNGERGSSLFMDGKKYDFPAIPSSGDTVGAGDSFRAGLYLALYNRRSIEKGMIYGTIIAHHVIDDGIENFSLNMEDLERETENYRRMFTKRS
modifications: selenomethionine (expressed in selenomethionine-containing medium with suppression of normal methionine synthesis)
Consider B1, for which the binding result is reported as “binds”.
